Measured values: paper PMC5520056, “Cryo-EM structures of the ATP-bound Vps4^E233Q hexamer and its complex with Vta1 at near-atomic resolution” (Nature Communications, 2017)

B1: Vps4^E233Q (full-length yeast Vps4 containing an mutation) [Saccharomyces cerevisiae] / itself (parent)
chain: MSTGDFLTKGIELVQKAIDLDTATQYEEAYTAYYNGLDYLMLALKYEKNPKSKDLIRAKFTEYLNRAEQLKKHLESEEANAAKKSPSAGSGSNGGNKKISQEEGEDNGGEDNKKLRGALSSAILSEKPNVKWEDVAGLEGAKEALKEAVILPVKFPHLFKGNRKPTSGILLYGPPGTGKSYLAKAVATEANSTFFSVSSSDLVSKWMGESEKLVKQLFAMARENKPSIIFIDQVDALTGTRGEGESEASRRIKTELLVQMNGVGNDSQGVLVLGATNIPWQLDSAIRRRFERRIYIPLPDLAARTTMFEINVGDTPCVLTKEDYRTLGAMTEGYSGSDIAVVVKDALMQPIRKIQSATHFKDVSTEDDETRKLTPCSPGDDGAIEMSWTDIEADELKEPDLTIKDFLKAIKSTRPTVNEDDLLKQEQFTRDFGQEGN

Variants of: B1
Test: SEC
Conditions: with itself; in the presence of ATP; height of the peak at the hexamer elution position (~12.5 ml); read off a plot

Question: With MSTGDFLTKGIELVQKAIDLDTATQYEEAYTAYYNGLDYLMLALKYEKNPKSKDLIRAKFTEYLNRAEQLKKHLESEEANAAKKSPSAGSGSNGGNKKISQEEGEDNGGEDNKKLRGALSSAILSEKPNVKWEDVAGLEGAKEALKEAVILPVKFPHLFKGNRKPTSGILLYGPPGTGKSYLAKAVATEANSTFFSVSSSDLVSKWMGESEKLVKQLFAMARENKPSIIFIDQVDALTGTRGEGESEASRRIKTELLVQMNGVGNDSQGVLVLGATNIPWQLDSAIRRRFERRIYIPLPDLAARTTMFEINVGDTPCVLTKEDYRTLGAMTEGYSGSDIAVVVKDALMQPIRKIQSATHFKDVSTEDDETRKLTPCSPGDDGAIEMSWTDIEADELKEPDLTIKDFLKAIKSTRPTVNEDDLLKQEQFTRAFGQEGN [chain 1 D431A] as the variant, how does the response read?
Answer: 42 mAU

Same assay, conditions: with itself; in the presence of ATP; height of the broad peak at the hexamer elution position (~11.5-12 ml); read off a plot

Question: With MSTGDFLTKGIELVQKAIDLDTATQYEEAYTAYYNGLDYLMLALKYEKNPKSKDLIRAKFTEYLNRAEQLKKHLESEEANAAKKSPSAGSGSNGGNKKISQEEGEDNGGEDNKKLRGALSSAILSEKPNVKWEDVAGLEGAKEALKEAVILPVKFPHLFKGNRKPTSGILLYGPPGTGKSYLAKAVATEANSTFFSVSSSDLVSKWMGESEKLVKQLFAMARENKPSIIFIDQVDALTGTRGEGESAASRRIKTELLVQMNGVGNDSQGVLVLGATNIPWQLDSAIRRRFERRIYIPLPDLAARTTMFEINVGDTPCVLTKEDYRTLGAMTEGYSGSDIAVVVKDALMQPIRKIQSATHFKDVSTEDDETRKLTPCSPGDDGAIEMSWTDIEADELKEPDLTIKDFLKAIKSTRPTVNEDDLLKQEQFTRDFGQEGN [chain 1 E247A] as the variant, how does the response read?
Answer: 72 mAU

Same assay, conditions: with itself; in the presence of ATP; height of the peak at the hexamer elution position (~12 ml); read off a plot

Question: Which response does the source give for MSTGDFLTKGIELVQKAIDLDTATQYEEAYTAYYNGLDYLMLALKYEKNPKSKDLIRAKFTEYLNRAEQLKKHLESEEANAAKKSPSAGSGSNGGNKKISQEEGEDNGGEDNKKLRGALSSAILSEKPNVKWEDVAGLEGAKEALKEAVILPVKFPHLFKGNRKPTSGILLYGPPGTGKSYLAKAVATEANSTFFSVSSSDLVSKWMGESEKLVAQLFAMARENKPSIIFIDQVDALTGTRGEGESEASRRIKTELLVQMNGVGNDSQGVLVLGATNIPWQLDSAIRRRFERRIYIPLPDLAARTTMFEINVGDTPCVLTKEDYRTLGAMTEGYSGSDIAVVVKDALMQPIRKIQSATHFKDVSTEDDETRKLTPCSPGDDGAIEMSWTDIEADELKEPDLTIKDFLKAIKSTRPTVNEDDLLKQEQFTRDFGQEGN [chain 1 K215A] here?
Answer: 88 mAU

Question: How did the response turn out when MSTGDFLTKGIELVQKAIDLDTATQYEEAYTAYYNGLDYLMLALKYEKNPKSKDLIRAKFTEYLNRAEQLKKHLESEEANAAKKSPSAGSGSNGGNKKISQEEGEDNGGEDNKKLRGALSSAILSEKPNVKWEDVAGLEGAKEALKEAVILPVKFPHLFKGNRKPTSGILLYGPPGTGKSYLAKAVATEANSTFFSVSSSDLVSKWMGESEKLVKQLFAMARENKPSIIFIDQVDALTGTRGEGESEASRRIKTELLVQMNGVGNDSQGVLVLGATNIPWQLDSAIRRRFERRIYIPLPDLAARTTMFEINVGDTPCVLTKEDYRTLGAMTEGYSGSDIAVVVKDALMQPIRKIQSATHFKDVSTEDDETRKLTPCSPGDDGAIEMSWTDIEADEAKEPDLTIKDFLKAIKSTRPTVNEDDLLKQEQFTRDFGQEGN [chain 1 L396A] was run?
Answer: 65 mAU

Same assay, conditions: with itself; height of the peak at the hexamer elution position (~12 ml); read off a plot

Question: Which response does the source give for MSTGDFLTKGIELVQKAIDLDTATQYEEAYTAYYNGLDYLMLALKYEKNPKSKDLIRAKFTEYLNRAEQLKKHLESEEANAAKKSPSAGSGSNGGNKKISQEEGEDNGGEDNKKLRGALSSAILSEKPNVKWEDVAGLEGAKEALKEAVILPVKFPHLFKGNRKPTSGILLYGPPGTGKSYLAKAVATEANSTFFSVSSSDLVSKWMGESEKLVKQLFAMARENKPSIIFIDQVDALTGTRGEGESEASRRIKTELLVQMNGVGNDSQGVLVLGATNIPWQLDSAIRRAFERRIYIPLPDLAARTTMFEINVGDTPCVLTKEDYRTLGAMTEGYSGSDIAVVVKDALMQPIRKIQSATHFKDVSTEDDETRKLTPCSPGDDGAIEMSWTDIEADELKEPDLTIKDFLKAIKSTRPTVNEDDLLKQEQFTRDFGQEGN [chain 1 R289A] here?
Answer: 13 mAU

Same assay, conditions: with itself; in the presence of ATP; height of the broad peak at the hexamer elution position (~12 ml); read off a plot

Question: MSTGDFLTKGIELVQKAIDLDTATQYEEAYTAYYNGLDYLMLALKYEKNPKSKDLIRAKFTEYLNRAEQLKKHLESEEANAAKKSPSAGSGSNGGNKKISQEEGEDNGGEDNKKLRGALSSAILSEKPNVKWEDVAGLEGAKEALKEAVILPVAAPHLFKGNRKPTSGILLYGPPGTGKSYLAKAVATEANSTFFSVSSSDLVSKWMGESEKLVKQLFAMARENKPSIIFIDQVDALTGTRGEGESEASRRIKTELLVQMNGVGNDSQGVLVLGATNIPWQLDSAIRRRFERRIYIPLPDLAARTTMFEINVGDTPCVLTKEDYRTLGAMTEGYSGSDIAVVVKDALMQPIRKIQSATHFKDVSTEDDETRKLTPCSPGDDGAIEMSWTDIEADELKEPDLTIKDFLKAIKSTRPTVNEDDLLKQEQFTRDFGQEGN [chain 1 K154A F155A] was tested. Which response did it give?
Answer: 44 mAU
